No end group written: not given here.

B1: 17 (protein)
chain: ANIDKVNLARNFLFSYIQKNLYYTRSYFNVAQLFSTLQIFLDQFCYPGLGRCIPYINKCLCYDKSKMKPKTAKSCLNNCGVISLCSGYPYGPGYKIIPNEFINNRKVVTCVVSSLQNKLDRTCGYNKKLRFNENKIYCIPYDLLDMNLAGIYCVNNNKEKIFCKGFLRQIYTNLKEYEILDIAYHNFILNNPCNEHIYDDGTNYKGCQDTSISGRKCLHWNSLNMEKVLPYLYLHNYCRNPEGLSYIYCYVDNNGIITREYCKSRSNIIFNNIAYSREKYFHFDITMKNVADFRIKLDNKPCNQRYFVNNHRINEFTYDKRNYAYHNINGEIALTISFKNFAYNTYYDYKLYICACFKYYYTNDLVICSTDNYKVEIGSFLITKAYTDKDTNVFYLNRQYNLAFNINYEIIKNEIYIIKGDYAYECNHLRIIGNDNIHMITNMNILFNYYKNQNFQKIHPPLEPNKKYSYIYSYFDPILDLSSILRKNELFINPQSSNIIKGYQNVDNLNNDGKTNSKSKFAKNKHMLQNGAP
modifications: bait human Fc-tagged dimer
B2: 57 (protein)
chain: NDLCSCNLKVRNNWEHFLQVYQNNGNFKMEILEPECTIQKNLPSEEEKEEFIDFDRKELLLHDFVVIKNSQFTDEKTLELYLSKEENNKAYLMLTFYLGDLKLMIGHNSPYEISLILNVATVNKNMANCKNNAYNIVLLKTTDVFNTADLEILEGPIQFSLGKSSGAFRINVANFFLNNAWKAFTKDKISFLIKPEENCYTILENKINKPQLLIEKKTTFYSEWGEWSNCAMDCDHPDNVQIRERECIHPSGDCFKGDLKESRPCIIPLPPCNELFSHKDNS
modifications: bait human Fc-tagged dimer
B3: 28 (protein)
chain: GVLSFKFNTIKNLNVHLEIVMYGLFHIYNYKLNFKIVCDNGYYYIFNDCFPCPQGYYNNINIIKTNVDFINKCMKCDKNKATLIEKSSNKADCLCNFGYEYIKNPADPQEFICSPCTRGMYKNTISNKLCDGNACTGNFATSVIGAKNIIESTCFCKPGFYVTYDYRGIEFCKECLLHFYCPGNVIGIQKCPIHNEALQPEKRINFDSLHGCFCKKGYEPINILNINKAGTRDEHYYKLFHNTYADKFKDINPKHICMECDIGYYKDTISFQPCKKCPNQATNKKYGSTSLNDCNTCHSGYYKNINKACSTCLPNHFCVGDLLQKDLDKYSGDAVICPNNAVTKKPYTQNGAFKDCLCIEGYIKNYQESYNINDHCKLVPLNFYKDSISNDLGTPCPVNSITLNVGAKTINECLCNKGYFYNVKKQQCEECPIGFYCPKISSKNNIKKPIKCPKNSASIKKGMYISNNCQCNFGYTKYIHIDNNQALLNNNIIKYDNKKTNKMFYSFLSNNYYNYKNKINYINKAYNNRNLILLRNIQNKNAIYKKKKRKNVLCIRCPPMTYKGTISNDPCEACPLNSRTIESVNNAHIFFCLCNPGYYLHEQMCKPCSFSKLYCTGENIYIISQSLYETALQEIKNIYVSKNNDMYKMILMNLALYDYSQNVNINNNNNNNNNNNIHNNNIYNIYNSINHYNNDNNIFVNPIVNNKLKHHNNIIYPPYNLLNSQVDTIPFLKKKYGNNINIANILDLNSLYKEPIQNNNNLNTILKSFFHKDNENLIYVKYQNFVTCGKNTVIPLGVDSSYTFDDCKCKKGYYLKSKDINNAIKICEPCKTGTFKNYVGDDTFCLHCPPKSTSLEGSIYPTHCFCKGGFFYSKGYCLECLEGALCKGGLNKNVMQRMKFNMENILITEKDHIKPHSNKNYYLDKSVIDVVDVSEWKFIKCPIKGACLEKNKCHKSMNNYLCIECAKGYTNSFMTSLCVKCPNNIANM
modifications: bait human Fc-tagged dimer
B4: 41 (protein)
chain: VYNVKTQKNEGIIIDKEGKENDNGNSDRNTPNNNNRLNRMTLNKEMYEKHNKMNNEEDNNKNINYDLSNLKDGMKKKHFGSNSAEDKTNKKSSINSVLEKYQHTKHEEKNLQNLNKNMMTHENDDSMKSIFISEESFESAKNVCQFIVMQNDYFKNFCNIASLVYDIEKLKKNNHKIYEEILSNSYENNNGAKFKLLKEINHAKVFKEMDNTNPKFSILFLYDKFCYGGIPLACSNLMKYDNVFDINEQSETTNKPDDNVNMEEMENYIINQAGMENGFEENVADLTQE
modifications: bait human Fc-tagged dimer
B5: 52 (protein)
chain: AEEHEITHKTYFDITIDDKPLGRIVFGLYGKVAPKTVENFVSICKGTVVDGKMLHYTNSIFHRIIPNFMAQGGDITNFNGAGGLSIYGKKFEDENFKVNHAKRGLLSMANAGKNTNGAQFFILFIPTPWLDGRHVVFGEVVEGLDKLVHIEAVGTDSGEPLKRVLVKESGELPL
modifications: bait human Fc-tagged dimer
B6: 12 (protein)
chain: SDTFRVFEDFDVRRKNKIWCCNLNHEKSYFHNKAINTAYKNRVLKESILLNLDLDMKKYKDNIITRKKTPENIYKEIYENNYEMKYDEDIPNNMAEEKRDEKEVIEHLEIDEKNGKQYKSDINKPVSLSHLKQYKNIYVNNNNKINKKKSIDKHLPSYNLERKNNKYLNFLLVDNRNEAYTFMVPMKFYINHEMYNIADEEYNKLMEDNSVDVYLNNILVEYKYENFEIKEGEVDGEVEGEGEVEGEVEGEVKGKVVEGIENNMNEEEKYNKDNKDKENQINSNGQDENTEFQENDNNDAVIMKYT
modifications: bait human Fc-tagged dimer
B7: 55 (protein)
chain: INVQIGNQKYSLCSNKIKKDLLDFYNTLGVSKSDKNLKDNIKKVNLYTKFRKRLYKDRLSIYANVAIKEKGEEVVPVKVVDEKENKENEEKTNILDQEIFTNFMQYNKNNFFCIDELGLDISIPFYKNSGFGANVVYQLPEMVYVNAYTNIYNTIIKGEFNSIDILKRISFFQFFDNFYLNAHYDFKSEKALLNLESKLYEYYNKHGDNIAFNNKIIVERNMHNEYDGSVCLSLKYNNNVFTPIFNFKDKTYEYVYDNLAANRKFSVKVDKERNVHFNYLSFDRVDESNKYFLFFNFIFSNPMQSIITLKREFIF
modifications: bait human Fc-tagged dimer
B8: 56 (protein)
chain: FLRNKEHANLINSYNDIVEDINIKKEEKSSSEPPFIPIKNKIDNVHTKNNNQYNLHNNKANKAHLTYGTHTSFLQNCAINDCVDVDNKDSEINNIAKEKDDNNNNNGAKQIEEKNKINKADLHRQNELNLQSGKNEQDINKNEKGKQDISNSNAENKKDVKEGVKELEEKKKEEKISDDHKVEENKKSDDHKVEENKKSDDHKVEENKKSDDHKIEEVKKVEEHEEDEEEDKKEKKSENKNKDENKDENDEDNDEISDEDEVDDDVEEDKNENDDIDDDKKETDKTHLEEEENEIIEKEFSDKKKNGKNKDTKKEKSKDTEKEKSKDIEKEKSKDKEKEKSKDKEKEKGKDKEKEKSKDIEKEKEKDKDIEKEKSKDTAKEKEKDKDIEKEKSKDMEKLKNKQNDEKKKDDNEKKKNDKQDIHDDNDDENDMEEIEENDDEEDEDEDMENKKKKKKGKNGNENGNENGAENGNENGNENGNENENKNEAENENENENENENGNENENEKENEKDKNIKEIENVANANKENYEKINKNSEITITKSNIDIYNNNRNNDIDKVNNHIFTNQQKKHNLHNEQNKFNEALNVATNHKNHYEEKKKYESNMFNVDKRMHKNLASMDTILHNLNDKLSHHKDLKNRELKLKFEAMSRIKEYKIYNELIQKSVEILTLRLTKINDELKKLKDISENALQKYINEKGYGLMKHYNFPEYNKLEEEKIMKRSKITWNEKKSHHLYCPMECNKERCYNRPRGPTQCYKLEQIGRNIETICEPFINEHNGACRPDFHHCAIAEPERNKKYSIYATDDVHFVPSQFVTIKGYNLHECLQFLVVKKNSACGPMTIEKNLMESEEILKEPVLSKVLYNEILFENIKISTPGEYNICLAQFYQDPEKDDILSENSANKYKKKKKNDMKVLGIDTIGTLYVLPLHEKQKTG
modifications: bait human Fc-tagged dimer
B9: 47 (protein)
chain: NNIAHKEDDCGASELAIKKLQELKKFELDILKDFIKKDTDHTDMYKRYHCISSDFLKNTKQEDKKEDNYAKKEDKKDIENSANYIINNKNEKISFINKIISFVGMWNYNKYGNNIQESKNKINIYNNNNNKAENELLYNKEDYTNHIPTNENPNSYMQLSAFNLAKKSMFLGGKDNAAQNFEVGNYGSFYMIFGARNTDYPWACSCDTLQLEEYKEKKRSYVLCSNQLDMSIQNSDLFCNPKN
modifications: bait human Fc-tagged dimer
B10: 18 (protein)
chain: KENKNDNFLNGIYKLQNIWRNTALGELDLKKANIENAEGIIEKFNDANKADFNQHPHFRSKLSFLEHKNHKDMGIVTNHQNKDHKKNEYTSEEIIDMKPQLASQEMWRKGENFYMHGATNTNEQNDDEDLFESFHKNHNSNIKINSPCFDLQDKEMCSNNKECFYDDAYKACFQNCALVNEKKCSLYSECKHTPNGCQNEGYLNIQVFGSNLGGDVRACELFESEGSCYLMEKLFKKLSEEKKETSFNCVWISYKHELRSYDDENEPKENNDNIVALENKNKYMYMNNVESIHNNHHLENPYHEDIKHNKHKSFNYHVLSSSVPRQIAKNEKFLSLLQLNLKGKKKEKNKKKKKDDEDDDDIDEEDDDLDIEGKNNEFNADEEENSKDLKNNNIDDNEEDGTTDEDDLFNNKKKKKNNNNNNANNNNNKNKNKQNTNKKNNKIINEFDDDIDEVSEENLLNDEEKKQNKIKNKNINEANNIAENNEIEISSKDLTEQYEDKYNYDKKNNMGTNNNFNNANTFANNKNNLHNKYINHASHTQNEKDILKHNFYGKDNNGAYEIIKVETHICANLNEKPNPSTLLEGALIAENEAQLQKIKKKYKVTDNEICVRPTNSAYVSLIPDKKYYLLGEKIEFKCQEGYKIIGTTNIGVCTGRNIISPNIACESLTNFDDVEKDNIQKMNNIINS
modifications: bait human Fc-tagged dimer
B11: 1 (protein)
chain: EVESSDSTSFLNLISGQSSSNSDDTVSSSDSRGVVASVSGTVDSDVSRTDSTGNVNSKNSELSETRQNSVEQNNNANSADNSIKIKSAFLKENVGVKITGPCDEGFGLVMVPHIIINVDTRNTDIQLGKKSSEINYGIKLRKKGKDEYEEKVGIDLLKNVCETGKNFKFVAYIKGDELIIKWKVIEEGNIPIDIKKFKIKRMSPPITSIQVFSSMSDEKSFVLENKNYVVTNNMPEKCEALATNCFLSGNIDIEKCYQCSLLVENDAKSDVCYNFISRENKEKLNEERFKVKGSTEYEESVESELKGAIDLLISSFYKSDGENGENVLISFEDLNSALEDDIINFCSLLKLVDLSGTFMNHQIGTTADAFNNIVKLLKEHKEEDEFVLRTKLRNPALCMKNVDDWVKSRCGLLTSDDSYVVIKKNSDTNGKNENNEANDEEYDGVIDLSTNENGNVKSIQFNDDIYCNDDYCNRWKNENNCISKIGVEDQGNCASSWAFASKLHFETLRCMKGYDHLGISALYLTNCAKGKISKRCTEGGNPAEFLEIVSNSGFLPTEFDYPYFYALVENSCPSGLNKWINLWEDVKLFDYKYEPNSIGSKGYSVYKSEMFKDNMDEYVKMIKSEIKNKGSVIAYINAQSVLTYDFNGKNILNMCGSKTTDHSINVIGYGHYKNKEGEEKSYWLVRNSWGYYWGDEGNFKVDMYGPSNCNYHFINTVLVFNIDIPMMNNNENNKKGLYNYFPKYTHEFYHNFYDQNFGSDNKISLINSNGANKNDVNNAYTVHGQSGETEVQPSQLRSTANQDSNRGAVTSDPLRTQPETTSTSVKKMDVFQVLKHVKNSKIKVGLIKYDNDDEIGAHHSCTRAYSFDPEKYDECVEFCRKNWEQCKDKPSPGFCLTKLDESKGCFFCYV
modifications: bait human Fc-tagged dimer
B12: 3 (protein)
chain: MGFHIQRYIAMMGRGINPKTWKKLWVDSKNKQIIHVYNDVAEFMNNQIAQVVRVYQYRY
modifications: also: human Fc-tagged dimer

The target in the assay is FGFR4 ectodomain (Homo sapiens, UniProt P22455). Put plainly: AVEXIS normalised luminescence.
B1 displayed a binding score of 0.943.

Regarding B2, the binding score was found to be 0.899.

Regarding B3, the binding score came to 0.857.

Consider B4, for which the binding score was 1.23.

On to B5, for which the binding score worked out at 1.22.

The molecule B6 registered a binding score of 0.891.

With B7, the binding score turned out to be 0.922.

B8 gave a binding score of 0.733.

Turning to B9, the binding score turned out to be 0.93.

For B10, the binding score turned out to be 1.

The molecule B11 registered a binding score of 1.25.

Take B12: the binding score is 0.753.
